Data published in article PMC10095481, “Sequence-Dependent Interaction of the Human Papillomavirus E2 Protein with the DNA Elements on Its DNA Replication Origin”.

Key:
HPV-11 E2 (full length) [1] = target: T1, HPV-11 E2 (full length) (Human papillomavirus type 11, UniProt P04015 1-367); test: EMSA; EMSA: 10 mM HEPES pH 7.9, 50 mM NaCl, 4 mM MgCl2, 10% glycerol, 5 mM DTT, 0.2 mM EDTA, 0.1 mg/mL BSA, 10 ng/uL poly(dI-dC), 10 min 30 C; details: protein: recombinant; tags: N-terminal His (pET28a); chain copies: 2; label: 32P
HPV-11 E2 (full length) [2] = target: T1, HPV-11 E2 (full length); test: EMSA; affinity similar to BS1+2; C1, C2 and C3; EMSA: 10 mM HEPES pH 7.9, 50 mM NaCl, 4 mM MgCl2, 10% glycerol, 5 mM DTT, 0.2 mM EDTA, 0.1 mg/mL BSA, 10 ng/uL poly(dI-dC), 10 min 30 C; details: protein: recombinant; tags: N-terminal His (pET28a); chain copies: 2; label: 32P
HPV-11 E2 (full length) [3] = target: T1, HPV-11 E2 (full length); test: EMSA; 0 C; EMSA: 10 mM HEPES pH 7.9, 50 mM NaCl, 4 mM MgCl2, 10% glycerol, 5 mM DTT, 0.2 mM EDTA, 0.1 mg/mL BSA, 10 ng/uL poly(dI-dC), 10 min 30 C; details: protein: recombinant; tags: N-terminal His (pET28a); chain copies: 2; label: 32P
HPV-11 E2 (full length) [4] = target: T1, HPV-11 E2 (full length); test: EMSA; 10 C; EMSA: 10 mM HEPES pH 7.9, 50 mM NaCl, 4 mM MgCl2, 10% glycerol, 5 mM DTT, 0.2 mM EDTA, 0.1 mg/mL BSA, 10 ng/uL poly(dI-dC), 10 min 30 C; details: protein: recombinant; tags: N-terminal His (pET28a); chain copies: 2; label: 32P
HPV-11 E2 (full length) [5] = target: T1, HPV-11 E2 (full length); test: EMSA; 20 C; EMSA: 10 mM HEPES pH 7.9, 50 mM NaCl, 4 mM MgCl2, 10% glycerol, 5 mM DTT, 0.2 mM EDTA, 0.1 mg/mL BSA, 10 ng/uL poly(dI-dC), 10 min 30 C; details: protein: recombinant; tags: N-terminal His (pET28a); chain copies: 2; label: 32P
HPV-11 E2 (full length) [6] = target: T1, HPV-11 E2 (full length); test: EMSA; 30 C; EMSA: 10 mM HEPES pH 7.9, 50 mM NaCl, 4 mM MgCl2, 10% glycerol, 5 mM DTT, 0.2 mM EDTA, 0.1 mg/mL BSA, 10 ng/uL poly(dI-dC), 10 min 30 C; details: protein: recombinant; tags: N-terminal His (pET28a); chain copies: 2; label: 32P
HPV-11 E2 (full length) [7] = target: T1, HPV-11 E2 (full length); test: EMSA; 35 C; EMSA: 10 mM HEPES pH 7.9, 50 mM NaCl, 4 mM MgCl2, 10% glycerol, 5 mM DTT, 0.2 mM EDTA, 0.1 mg/mL BSA, 10 ng/uL poly(dI-dC), 10 min 30 C; details: protein: recombinant; tags: N-terminal His (pET28a); chain copies: 2; label: 32P
HPV-11 E2 (full length) [8] = target: T1, HPV-11 E2 (full length); test: EMSA; apparent Kd; EMSA: 10 mM HEPES pH 7.9, 50 mM NaCl, 4 mM MgCl2, 10% glycerol, 5 mM DTT, 0.2 mM EDTA, 0.1 mg/mL BSA, 10 ng/uL poly(dI-dC), 10 min 30 C; details: protein: recombinant; tags: N-terminal His (pET28a); chain copies: 2; label: 32P
HPV-11 E2 (full length) [9] = target: T1, HPV-11 E2 (full length); test: EMSA; flank experiment WT; EMSA: 10 mM HEPES pH 7.9, 50 mM NaCl, 4 mM MgCl2, 10% glycerol, 5 mM DTT, 0.2 mM EDTA, 0.1 mg/mL BSA, 10 ng/uL poly(dI-dC), 10 min 30 C; details: protein: recombinant; tags: N-terminal His (pET28a); chain copies: 2; label: 32P
HPV-11 E2 (full length) [10] = target: T1, HPV-11 E2 (full length); test: competition; unlabeled competitor vs 32P-BS1; EMSA: 10 mM HEPES pH 7.9, 50 mM NaCl, 4 mM MgCl2, 10% glycerol, 5 mM DTT, 0.2 mM EDTA, 0.1 mg/mL BSA, 10 ng/uL poly(dI-dC), 10 min 30 C; details: protein: recombinant; tags: N-terminal His (pET28a); chain copies: 2; label: 32P
HPV-11 E2 (full length) [11] = target: T1, HPV-11 E2 (full length); test: EMSA; no complex at 80 nM E2; EMSA: 10 mM HEPES pH 7.9, 50 mM NaCl, 4 mM MgCl2, 10% glycerol, 5 mM DTT, 0.2 mM EDTA, 0.1 mg/mL BSA, 10 ng/uL poly(dI-dC), 10 min 30 C; details: protein: recombinant; tags: N-terminal His (pET28a); chain copies: 2; label: 32P
HPV-11 E2 (full length) [12] = target: T1, HPV-11 E2 (full length); test: EMSA; single complex C1; EMSA: 10 mM HEPES pH 7.9, 50 mM NaCl, 4 mM MgCl2, 10% glycerol, 5 mM DTT, 0.2 mM EDTA, 0.1 mg/mL BSA, 10 ng/uL poly(dI-dC), 10 min 30 C; details: protein: recombinant; tags: N-terminal His (pET28a); chain copies: 2; label: 32P
HPV-11 E2 (full length) [13] = target: T1, HPV-11 E2 (full length); test: EMSA; C1, C2 and C3 complexes; EMSA: 10 mM HEPES pH 7.9, 50 mM NaCl, 4 mM MgCl2, 10% glycerol, 5 mM DTT, 0.2 mM EDTA, 0.1 mg/mL BSA, 10 ng/uL poly(dI-dC), 10 min 30 C; details: protein: recombinant; tags: N-terminal His (pET28a); chain copies: 2; label: 32P
[14] = target: T2, recombinant full-length HPV type 11 E2 protein (human papillomavirus type 11), P04015; test: dynamic light scattering; purified E2 in solution at low (≤0.1 mg/mL) protein concentration; solvent set as 10% glycerol; three separate measurements; monomer to dimer; details: remark: other sources report otherwise
T2 chain: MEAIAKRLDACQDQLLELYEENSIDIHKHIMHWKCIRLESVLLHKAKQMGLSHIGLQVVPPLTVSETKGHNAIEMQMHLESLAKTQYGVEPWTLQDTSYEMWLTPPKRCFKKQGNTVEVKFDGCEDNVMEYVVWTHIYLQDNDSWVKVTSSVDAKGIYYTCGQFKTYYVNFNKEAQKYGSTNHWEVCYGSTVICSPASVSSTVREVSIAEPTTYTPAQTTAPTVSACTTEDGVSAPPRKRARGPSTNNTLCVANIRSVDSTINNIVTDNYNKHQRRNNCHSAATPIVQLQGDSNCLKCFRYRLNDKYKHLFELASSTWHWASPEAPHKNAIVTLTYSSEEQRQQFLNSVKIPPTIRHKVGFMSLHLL

HPV-11 E2 (full length) [15] = target: T1, HPV-11 E2 (full length); test: EMSA; spacer experiment WT (TTTT); EMSA: 10 mM HEPES pH 7.9, 50 mM NaCl, 4 mM MgCl2, 10% glycerol, 5 mM DTT, 0.2 mM EDTA, 0.1 mg/mL BSA, 10 ng/uL poly(dI-dC), 10 min 30 C; details: protein: recombinant; tags: N-terminal His (pET28a); chain copies: 2; label: 32P

B1: BS4 with GTTT spacer (dsDNA)
DNA 1: CTTGCAACCGGTTTCGGTTGCCCT
DNA 2: AGGGCAACCGAAACCGGTTGCAAG
Kd (HPV-11 E2 (full length) [1]): 6.4 ± 0.6 nM

B2: BS1+2+E1BS (124 bp) (dsDNA)
DNA 1: GTAACCCACACCCTACATATTTCCTTCTTATACTTAATAACAATCTTATTTAAAAAAGAGGAGGGACCGAAAACGGTTCAACCGAAAACGGTTATATATAAACCAGCCCAAAAAATTAGCAGA
DNA 2: TCTGCTAATTTTTTGGGCTGGTTTATATATAACCGTTTTCGGTTGAACCGTTTTCGGTCCCTCCTCTTTTTTAAATAAGATTGTTATTAAGTATAAGAAGGAAATATGTAGGGTGTGGGTTAC
binding result (HPV-11 E2 (full length) [2]): binds

B3: BS1 (dsDNA)
DNA 1: GGTTCAACCGAAAACGGTTATATG
DNA 2: CATATAACCGTTTTCGGTTGAACC
Kd (HPV-11 E2 (full length) [3]): 7.3 ± 0.7 nM | Kd (HPV-11 E2 (full length) [4]): 5.5 ± 1.5 nM | Kd (HPV-11 E2 (full length) [5]): 6.2 ± 1.4 nM | Kd (HPV-11 E2 (full length) [6]): 5.3 ± 0.4 nM | Kd (HPV-11 E2 (full length) [7]): 5.7 ± 1.1 nM | Kd (HPV-11 E2 (full length) [8]): 6.2 ± 0.9 nM | Kd (HPV-11 E2 (full length) [9]): 6 ± 0.7 nM | Kd (HPV-11 E2 (full length) [10]): 6.2 ± 1.4 nM

B4: BS1 5'+3' mutant (dsDNA)
DNA 1: CCTGCAACCGAAAACGGTTACCCA
DNA 2: TGGGTAACCGTTTTCGGTTGCAGG
Kd (HPV-11 E2 (full length) [1]): 7.7 ± 1.7 nM

B5: Non-specific (dsDNA)
DNA 1: TGGCGGACCCCACCCAGCCCCACGCGCA
DNA 2: TGCGCGTGGGGCTGGGTGGGGTCCGCCA
binding result (HPV-11 E2 (full length) [11]): no binding

B6: BS1 5' mutant (dsDNA)
DNA 1: CCTGCAACCGAAAACGGTTATATG
DNA 2: CATATAACCGTTTTCGGTTGCAGG
Kd (HPV-11 E2 (full length) [1]): 6.4 ± 0.6 nM

B7: BS1 3' mutant (dsDNA)
DNA 1: GGTTCAACCGAAAACGGTTACCCA
DNA 2: TGGGTAACCGTTTTCGGTTGAACC
Kd (HPV-11 E2 (full length) [1]): 7.6 ± 0.6 nM

B8: BS3 (dsDNA)
DNA 1: CCTGCAACCGGTTTCGGTTACCCA
DNA 2: TGGGTAACCGAAACCGGTTGCAGG
Kd (HPV-11 E2 (full length) [8]): 10.2 ± 1.7 nM

B9: BS1 (50 bp) (dsDNA)
DNA 1: GGAGGGATTGAAAACTTTTCAACCGAAAACGGTTATATATAAACCAGCCC
DNA 2: GGGCTGGTTTATATATAACCGTTTTCGGTTGAAAAGTTTTCAATCCCTCC
Kd (HPV-11 E2 (full length) [12]): 5.3 ± 0.6 nM

B10: BS1+2 (50 bp) (dsDNA)
DNA 1: GGCGGGACCGAAAACGGTTCAACCGAAAACGGTTATATATAAACCAGCCC
DNA 2: GGGCTGGTTTATATATAACCGTTTTCGGTTGAACCGTTTTCGGTCCCGCC
Kd (HPV-11 E2 (full length) [13]): 4.2 ± 0.3 nM

B11: recombinant full-length HPV type 11 E2 protein, P04015 1-367 (natural protein)
chain: MEAIAKRLDACQDQLLELYEENSIDIHKHIMHWKCIRLESVLLHKAKQMGLSHIGLQVVPPLTVSETKGHNAIEMQMHLESLAKTQYGVEPWTLQDTSYEMWLTPPKRCFKKQGNTVEVKFDGCEDNVMEYVVWTHIYLQDNDSWVKVTSSVDAKGIYYTCGQFKTYYVNFNKEAQKYGSTNHWEVCYGSTVICSPASVSSTVREVSIAEPTTYTPAQTTAPTVSACTTEDGVSAPPRKRARGPSTNNTLCVANIRSVDSTINNIVTDNYNKHQRRNNCHSAATPIVQLQGDSNCLKCFRYRLNDKYKHLFELASSTWHWASPEAPHKNAIVTLTYSSEEQRQQFLNSVKIPPTIRHKVGFMSLHLL
stoichiometry N [14]: 2

B12: BS2 (dsDNA)
DNA 1: GGAGGGACCGAAAACGGTTCAACC
DNA 2: GGTTGAACCGTTTTCGGTCCCTCC
Kd (HPV-11 E2 (full length) [8]): 7.8 ± 0.7 nM | Kd (HPV-11 E2 (full length) [10]): 6 ± 0.6 nM

B13: BS4 (dsDNA)
DNA 1: CTTGCAACCGTTTTCGGTTGCCCT
DNA 2: AGGGCAACCGAAAACGGTTGCAAG
Kd (HPV-11 E2 (full length) [8]): 4.8 ± 0.7 nM | Kd (HPV-11 E2 (full length) [15]): 4.4 ± 0.4 nM | Kd (HPV-11 E2 (full length) [10]): 4.6 ± 0.4 nM
